The target in the assay is […] / HLA-B*07:02 tetramer (human; SARS-CoV-2). The experiment in a line: DNA-barcoded tetramer staining, single-cell sequencing.

Consider one molecule from patent publication US20220033460A1 (REPERTOIRE IMMUNE MEDICINES, published 2022).

B1: TCR_11 (TCR, V domains shown)
V domain 1: EDQVTQSPEALRLQEGESSSLNCSYTVSGLRGLFWYRQDPGKGPEFLFTLYSAGEEKEKERLKATLTKKESFLHITAPKPEDSATYLCAVQAPMSARGSQGNLIFGKGTKLSVKP
V domain 2: GAGVSQSPSNKVTEKGKDVELRCDPISGHTALYWYRQSLGQGLEFLIYFQGNSAPDKSGLPSDRFSAERTGGSVSTLTIQRTQQEDSAVYLCASSSKGGGQQTQYFGPGTRLLVLE
As for B1, the “No. of Cells” value turned out to be 10 cells.
